Among the data in US20040127682A1 are % of 125I-UCHT1 bound to cells values, retold here.

The target in test [1] is human CD3 (CD3 epsilon of the T-cell receptor complex) on Jurkat cells (human) (UniProt P07766). Nature of the test: competition with 125I-UCHT1 tracer on Jurkat cells; competitor at 100 nM.
Test [2] has the same target. Nature of the test: competition with 125I-UCHT1 tracer on Jurkat cells; competitor at 1 nM.

Chain of UniProt P07766 (P07766 23-207, one chain of several): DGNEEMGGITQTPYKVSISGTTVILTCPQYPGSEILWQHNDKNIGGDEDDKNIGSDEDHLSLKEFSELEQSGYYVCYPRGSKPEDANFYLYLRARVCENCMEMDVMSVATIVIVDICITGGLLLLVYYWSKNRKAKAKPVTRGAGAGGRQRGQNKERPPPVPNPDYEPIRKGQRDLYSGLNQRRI

scUCHT1: the % of 125I-UCHT1 bound to cells in test [1] came to 0%; in test [2] it was 80%.
